Reference: the supplement of paper PMC9170038

Tests used:
Details in all cases: FMN input: 0 or 200 uM; Eterna round: R93 (includes R88 designs)
[1] = system: MS2 coat protein; test: apparent KD of MS2 coat protein, switch ON state; designed switch direction (-1 OFF switch, 1 ON switch): 1; higher = weaker reporter binding
Outline: (§1)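 With or without constant ligand, designed RNA switches in 100 mM Tris-HCl pH 7.5, 80 mM KCl and 4 mM MgCl2 were titrated with SNAP-549-labelled MS2 coat protein. Concentrations went up in twofold steps from 0.7 or 1.5 nM to 3 µM. The switches had been transcribed on-chip from Illumina sequencing clusters, and apparent KD is the per-design median of normalised cluster binding-curve fits.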

[2] = system: MS2 coat protein; test: apparent KD of MS2 coat protein, switch OFF state (with FMN for OFF switches, without FMN for ON switches); designed switch direction (-1 OFF switch, 1 ON switch): 1; higher = weaker reporter binding
Outline: as §1

[3] = system: MS2 coat protein; test: apparent KD of MS2 coat protein, switch ON state; designed switch direction (-1 OFF switch, 1 ON switch): -1; higher = weaker reporter binding
Outline: as §1

[4] = system: MS2 coat protein; test: apparent KD of MS2 coat protein, switch OFF state (with FMN for OFF switches, without FMN for ON switches); designed switch direction (-1 OFF switch, 1 ON switch): -1; higher = weaker reporter binding
Outline: as §1

Sequence | apparent KD of MS2 coat protein [1] [nM] | apparent KD of MS2 coat protein [2] [nM] | apparent KD of MS2 coat protein [3] [nM] | apparent KD of MS2 coat protein [4] [nM]
AAAAAAAAAAACUAGGAUAUUUAACGGACAACAUGAGGAUCACCCAUGUCACAAAAAAAAAUAGUAAAGAAGGAGUAAAAAAAAAA [Same State 2] | 25 | 23.8 |  | 
AAAAAAAAAACUGAGGAUAUGAAAUAAUAGACAUGAGGAUCACCCAUGUUUUCGGUCGAAAAAAUGCAGAAGGCAGAAAAAAAAAA [JR_SameState2_Sub3] | 19.4 | 23.8 |  | 
AAAAAAAAAAGCUAGGAUAUCCAAAAAAAAACAUGAGGAUCACCCAUGUAAAAAAAAAAAAAAUGGGAGAAGGAGCAAAAAAAAAA [Mod of Eli] | 28.5 | 39.6 |  | 
AAAAAAAAAAGUGAGGAUAUGUGAUCGGUGACAUGAGGAUCACCCAUGUGAGGCCUUCGGGCCAAGCAGAAGGUAUAAAAAAAAA [Same State 2-VII] | 105 | 29.4 |  | 
AAAAAAAAAGUAGAGGAUAUCCGAGUGGUAACAUGAGGAUCACCCAUGUGAAGAAAGGAAGAUGAGGAGAAGGCUACAAAAAAAAA [Mat - Mod of Nando] | 21.2 | 42.2 |  | 
AAAAAACAUGAGGAUCACCCAUGUAAAAAUAUCACAGGAUAUGGAAACACGAAAGUGAAACCAGAAGGGUGAAAAG [77%, Mat - Mod of Eli, 12] | 20.1 | 44.1 |  | 
GGAUGUGAAGGAUAUACAUGAGGAUCACCCAUGUGAGAGAAAAAAGUGAGAAAGAAAAGUAGAAGGUCGUGUCG [salish99-ex3-86] |  |  | 34.9 | 36.9
GGAUGUGUAGGAUAUACAUGAGGAUCACCCAUGUGAGAGAAAAAAGUGAGAAAGAAAAGUAGAAGGACGUGUCG [salish99-ex3-89] |  |  | 41 | 38
GGUUGGCGAGGAUAUACAUGAGGAUCACCCAUGUGAGAGAAAAAAGUGAGAAAGAAAAGUAGAAGGCGCUGACC [salish99-ex3-04] |  |  | 45.7 | 242
GUAGUGUGAGGAUAUGAUUAAAAGAAGGGAAAGAGACUGCAUCAGAAGGCACAUGAGGAUCACCCAUGUAUGAA [JR_Exc004_Sub1223] |  |  | 34.3 | 45.7
GUAGUGUGAGGAUAUGGAAAGAAGAAGAAAAGGUAGAAAAACUAGAAGGCACAUGAGGAUCACCCAUGUAAGAA [JR_Exc004_Sub1710] |  |  | 29.1 | 20.3
GUCAGCUGAGGAUAUACAGGUGAGGCCGCAUAACAAAAUAUACAUGAGGAUCACCCAUGUAGAAGGCGGAAGAC [Soreramare] |  |  | 41.1 | 47.6
GUCAGCUGAGGAUAUACAGGUGAUGCCGCAUAACAAAAUAUACAUGAGGAUCACCCAUGUAGAAGGCGGAAGAC [Zalaa] |  |  | 73.4 | 20.2
GUGUACAGAGGAUAUACUGGAGCUAGGAAACUAGCAAGAUCACAUGAGGAUCACCCAUGUAGAAGGCUGUACAC [Ex2: 743] |  |  | 90.8 | 20.2
UAAAGACAUGAGGAUCACCCAUGUGAGGAUAUCGGAGAUAACGGAACAUCAAGUUCGGCGAGAAGGCGCAGGAA [JR_Exc001_Sub405] |  |  | 33.4 | 38
UAUACGUGAGGAUAUGCGAAUACCACGUAAGACAUACAGACGCAGAAGGCACAUGAGGAUCACCCAUGUGAACC [JR_Exc004_Sub314] |  |  | 19.2 | 16.3
UAUACGUGAGGAUAUGCGAAUACCACGUUAGACAUAUAGACGCAGAAGGCACAUGAGGAUCACCCAUGUGAACC [JR_Exc004_Sub315] |  |  | 21.4 | 16.4
UCCUCACAUGAGGAUCACCCAUGUGAGGAUAUCUGAAAAAAAAAAAAAAAAAAAAAUCAGAGAAGGCACAUGGG [Design 11: Super Stable Short Helix 1] |  |  | 37.1 | 4.55
UCGUGGUCAGGAUAUACAUGAGGAUCACCCAUGUAAAAGAACACAAAGGAGAGACGACGUAGAAGGGACAAAUA [Erqugere] |  |  | 43.7 | 42.1
